Laboratory results reported in paper PMC3253312 (Steroids, 2011).
Changes are numbered by the printed parent chain. Numbers in names are those of the source.

Substrate: C[C@]12CCC(=O)C=C1CC[C@@H]1[C@@H]2CC[C@]2(C)C(=O)CC[C@@H]12
Assay: cells, lysate or membranes
Settings: substrate

B1: wild-type aromatase (Homo sapiens) (protein)
chain: MVLEMLNPIHYNITSIVPEAMPAATMPVLLLTGLFLLVWNYEGTSSIPGPGYCMGIGPLISHGRFLWMGIGSACNYYNRVYGEFMRVWISGEETLIISKSSSMFHIMKHNHYSSRFGSKLGLQCIGMHEKGIIFNNNPELWKTTRPFFMKALSGPGLVRMVTVCAESLKTHLDRLEEVTNESGYVDVLTLLRRVMLDTSNTLFLRIPLDESAIVVKIQGYFDAWQALLIKPDIFFKISWLYKKYEKSVKDLKDAIEVLIAEKRRRISTEEKLEECMDFATELILAEKRGDLTRENVNQCILEMLIAAPDTMSVSLFFMLFLIAKHPNVEEAIIKEIQTVIGERDIKIDDIQKLKVMENFIYESMRYQPVVDLVMRKALEDDVIDGYPVKKGTNIILNIGRMHRLEFFPKPNEFTLENFAKNVPYRYFQPFGFGPRGCAGKYIAMVMMKAILVTLLRRFHVKTLQGQCVESIQKIHDLSLHPDETKNMLEMIFTPRNSDRCLEH
Km (other: WT aromatase): 0.0273 ± 0.0025 µM | Vmax (other: WT aromatase): 5.32e-07 µmol/min/mg

B2: aromatase F221Y mutant (Homo sapiens; F221Y) (protein)
chain: B1 chain with F221Y
Km (other: F221Y mutant): 0.0029 ± 0.0003 µM | Vmax (other: F221Y mutant): 1.22e-07 µmol/min/mg

B3: aromatase W224F mutant (Homo sapiens; W224F) (protein)
chain: B1 chain with W224F
Km (other: W224F mutant): 0.067 ± 0.0051 µM | Vmax (other: W224F mutant): 1.18e-07 µmol/min/mg

B4: aromatase M374T mutant (Homo sapiens; M374T) (protein)
chain: B1 chain with M374T
Km (other: M374T mutant): 0.0178 ± 0.002 µM | Vmax (other: M374T mutant): 4.5e-08 µmol/min/mg
